Test results: patent US20150344570A1 (published 2015)
Read-outs that look alike come from different tables or passages of the source.

T1: FcgRIIa H (FcγRIIa type H) extracellular domain with C-terminal His tag (human, UniProt P12318 34-217)
T1 construct: extracellular domain; also called FcγRIIa H; not shown: His tag attached to the C terminus
T1 sequence (looked up): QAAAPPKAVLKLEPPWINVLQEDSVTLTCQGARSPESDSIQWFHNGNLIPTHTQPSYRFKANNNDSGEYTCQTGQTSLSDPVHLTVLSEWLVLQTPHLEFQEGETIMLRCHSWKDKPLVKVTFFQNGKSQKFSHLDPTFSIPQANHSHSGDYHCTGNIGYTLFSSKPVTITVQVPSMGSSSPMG

T2: FcgRIIb (FcγRIIb) extracellular domain with C-terminal His tag (human, UniProt P31994 43-217)
T2 construct: extracellular domain; not shown: His tag attached to the C terminus
T2 sequence (looked up): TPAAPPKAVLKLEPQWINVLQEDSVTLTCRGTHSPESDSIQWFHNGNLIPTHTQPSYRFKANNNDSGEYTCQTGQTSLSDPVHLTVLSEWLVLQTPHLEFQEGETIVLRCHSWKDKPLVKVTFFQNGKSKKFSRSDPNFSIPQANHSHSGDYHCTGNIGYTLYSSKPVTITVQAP

T3: FcgRIIa R (FcγRIIa type R) extracellular domain with C-terminal His tag (human, UniProt P12318 34-217)
T3 construct: extracellular domain; also called FcγRIIa R; not shown: His tag attached to the C terminus
T3 sequence (looked up): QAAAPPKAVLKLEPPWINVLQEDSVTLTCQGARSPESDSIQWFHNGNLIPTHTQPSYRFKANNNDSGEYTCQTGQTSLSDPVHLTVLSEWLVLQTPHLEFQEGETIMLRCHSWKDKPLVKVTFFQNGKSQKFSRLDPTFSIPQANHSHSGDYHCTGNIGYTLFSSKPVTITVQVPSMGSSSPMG


Tests used:
Test in all cases: SPR (Biacore); KD of H240-Kn061/H240-Hl071/L73-k0 divided by KD of the variant
[1] = molecular target: T4, FcgRIIIa V (FcγRIIIa type V) extracellular domain with C-terminal His tag (human, UniProt P08637 17-208)
T4 construct: extracellular domain; also called FcγRIIIa V; not shown: His tag attached to the C terminus
Description: (§1) The antibodies were assessed for the binding to each FcgR. […] The resultant value was defined as relative KD, and used as an assessment indicator.
(§2) Analysis of interaction between objective antibody and the FcγR was carried out using Biacore T100 (GE Healthcare), Biacore T200, Biacore A100, and Biacore 4000. HBS-EP+ (GE Healthcare) was used as the running buffer, and the measurement temperature was set to 25° C. Chips produced by immobilizing the antigen peptide by the amine coupling method to a Series S sensor Chip CM5 (GE Healthcare), chips produced by allowing preliminarily biotinylated antigen peptides to interact with and immobilize onto a Series S Sensor Chip SA (certified) (GE Healthcare), chips produced by immobilizing Protein L (ACTIGEN, BioVision) to Series S Sencor Chip CM5 (GE Healthcare), or chips produced by immobilizing Protein A/G (Thermo Scientific) to Series S Sencor Chip CM5 (GE Healthcare) were used. Antibodies of interest were captured onto these chips, and allowed to interact to each FcγR diluted with running buffer.

[2] = molecular target: T1, FcgRIIa H (FcγRIIa type H) …
Description: as §1, §2

[3] = molecular target: T5, FcgRIIIa F (FcγRIIIa type F) extracellular domain with C-terminal His tag (human, UniProt P08637 17-208)
T5 construct: extracellular domain; also called FcγRIIIa F; 3aF; not shown: His tag attached to the C terminus
Description: as §1, §2

[4] = molecular target: T2, FcgRIIb (FcγRIIb) extracellular domain …
Description: as §1, §2

[5] = molecular target: T3, FcgRIIa R (FcγRIIa type R) …
Description: as §1, §2

[6] = molecular target: T4, FcgRIIIa V (FcγRIIIa type V) …; remark: listed apart in the source
[7] = molecular target: T5, FcgRIIIa F (FcγRIIIa type F) …; remark: listed apart in the source
[8] = molecular target: T2, FcgRIIb (FcγRIIb) extracellular domain …; remark: listed apart in the source

T5 sequence (P08637 17-208): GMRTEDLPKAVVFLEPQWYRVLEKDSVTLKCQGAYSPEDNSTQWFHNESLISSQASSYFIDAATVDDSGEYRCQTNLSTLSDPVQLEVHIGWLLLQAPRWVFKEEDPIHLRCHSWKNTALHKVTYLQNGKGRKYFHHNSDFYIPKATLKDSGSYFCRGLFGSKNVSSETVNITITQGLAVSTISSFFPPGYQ
T4 sequence (P08637 17-208 F176V limits assumed): as the sequence (P08637 17-208) above, with F160V counted along it

relative KD [1] [ratio]	relative KD [2] [ratio]	relative KD [3] [ratio]	relative KD [4] [ratio]	relative KD [5] [ratio]	relative KD [6] [ratio]	relative KD [7] [ratio]	relative KD [8] [ratio]	Binder
1.6	0.7	1.9	0.5	1.4	1.6	1.9	0.5	H240-Kn061/H240-Hl071/L73-k0 variant with Y234E in H240-Kn061 (antibody, human IgG1, kappa, anti-epiregulin heterodimerized IgG1; also called H240-Kn061 Y234E) heavy 1: QDQLVQSGAEVKKPGASVKVSCKASGFNIKDTYIQWVRQAPGQGLEWMGRIDPLRKQTKYREKFEGRVTITADTSTNTAYMELSSLRSEDTAVYYCVRSGREFDYWGQGTLVTVSSASTKGPSVFPLAPSSKSTSGGTAALGCLVKDYFPEPVTVSWNSGALTSGVHTFPAVLQSSGLYSLSSVVTVPSSSLGTQTYICNVNHKPSNTKVDKKVEPKSCDKTHTCPPCPAPEEYWGPSVFLFPPKPKDTLMISRTPEVTCVVVDVSDEDPEVKFNWYVDGVEVHNAKTKPREEQYNATYRVVSVLTVLHQDWLNGKEYKCKVSNKALPAPIEKTISKAKGQPREPQVCTLPPSRDELTKNQVSLWCLVKGFYPSDIAVEWESNGQPENNYKTTPPVLDSDGSFFLYSKLTVDKSRWQQGNVFSCSVMHEALHNHYTQKSLSLSP heavy 2: QDQLVQSGAEVKKPGASVKVSCKASGFNIKDTYIQWVRQAPGQGLEWMGRIDPLRKQTKYREKFEGRVTITADTSTNTAYMELSSLRSEDTAVYYCVRSGREFDYWGQGTLVTVSSASTKGPSVFPLAPSSKSTSGGTAALGCLVKDYFPEPVTVSWNSGALTSGVHTFPAVLQSSGLYSLSSVVTVPSSSLGTQTYICNVNHKPSNTKVDKKVEPKSCDKTHTCPPCPAPELLGGPSVFLFPPKPKDTLMISRTPEVTCVVVDVSHEDPEVKFNWYVDGVEVHNAKTKPREEQYNSTYRVVSVLTVLHQDWLNGKEYKCKVSNDALPMPIEETISKAKGQPREPQVYTLPPSRCELTKNQVSLSCAVKGFYPSDIAVEWESNGQPENNYKTTPPVLDSDGSFFLVSKLTVDKSRWQQGNVFSCSVMHEALHNHYTQKSLSLSP light: DIQMTQSPSSLSASVGDRVTITCRASQDIHKYIAWYQQKPGQAPRLLIQYTSTLQPGVPSRFSGSGSGTDYTFTISSLQPEDIATYYCLQYEQLRTFGGGTKVEIKRTVAAPSVFIFPPSDEQLKSGTASVVCLLNNFYPREAKVQWKVDNALQSGNSQESVTEQDSKDSTYSLSSTLTLSKADYEKHKVYACEVTHQGLSSPVTKSFNRGEC
1.5	0.4	1.1	0.5	0.6	1.5	1.1	0.5	H240-Kn061/H240-Hl071/L73-k0 variant with Y235P in H240-Kn061 (antibody, human IgG1, kappa, anti-epiregulin heterodimerized IgG1; also called H240-Kn061 Y235P) heavy 1: QDQLVQSGAEVKKPGASVKVSCKASGFNIKDTYIQWVRQAPGQGLEWMGRIDPLRKQTKYREKFEGRVTITADTSTNTAYMELSSLRSEDTAVYYCVRSGREFDYWGQGTLVTVSSASTKGPSVFPLAPSSKSTSGGTAALGCLVKDYFPEPVTVSWNSGALTSGVHTFPAVLQSSGLYSLSSVVTVPSSSLGTQTYICNVNHKPSNTKVDKKVEPKSCDKTHTCPPCPAPEYPWGPSVFLFPPKPKDTLMISRTPEVTCVVVDVSDEDPEVKFNWYVDGVEVHNAKTKPREEQYNATYRVVSVLTVLHQDWLNGKEYKCKVSNKALPAPIEKTISKAKGQPREPQVCTLPPSRDELTKNQVSLWCLVKGFYPSDIAVEWESNGQPENNYKTTPPVLDSDGSFFLYSKLTVDKSRWQQGNVFSCSVMHEALHNHYTQKSLSLSP heavy 2: QDQLVQSGAEVKKPGASVKVSCKASGFNIKDTYIQWVRQAPGQGLEWMGRIDPLRKQTKYREKFEGRVTITADTSTNTAYMELSSLRSEDTAVYYCVRSGREFDYWGQGTLVTVSSASTKGPSVFPLAPSSKSTSGGTAALGCLVKDYFPEPVTVSWNSGALTSGVHTFPAVLQSSGLYSLSSVVTVPSSSLGTQTYICNVNHKPSNTKVDKKVEPKSCDKTHTCPPCPAPELLGGPSVFLFPPKPKDTLMISRTPEVTCVVVDVSHEDPEVKFNWYVDGVEVHNAKTKPREEQYNSTYRVVSVLTVLHQDWLNGKEYKCKVSNDALPMPIEETISKAKGQPREPQVYTLPPSRCELTKNQVSLSCAVKGFYPSDIAVEWESNGQPENNYKTTPPVLDSDGSFFLVSKLTVDKSRWQQGNVFSCSVMHEALHNHYTQKSLSLSP light: DIQMTQSPSSLSASVGDRVTITCRASQDIHKYIAWYQQKPGQAPRLLIQYTSTLQPGVPSRFSGSGSGTDYTFTISSLQPEDIATYYCLQYEQLRTFGGGTKVEIKRTVAAPSVFIFPPSDEQLKSGTASVVCLLNNFYPREAKVQWKVDNALQSGNSQESVTEQDSKDSTYSLSSTLTLSKADYEKHKVYACEVTHQGLSSPVTKSFNRGEC
1.6	0.4	1.3	0.2	0.7	1.6	1.3	0.2	H240-Kn061/H240-Hl071/L73-k0 variant with Y235I in H240-Kn061 (antibody, human IgG1, kappa, anti-epiregulin heterodimerized IgG1; also called H240-Kn061 Y235I) heavy 1: QDQLVQSGAEVKKPGASVKVSCKASGFNIKDTYIQWVRQAPGQGLEWMGRIDPLRKQTKYREKFEGRVTITADTSTNTAYMELSSLRSEDTAVYYCVRSGREFDYWGQGTLVTVSSASTKGPSVFPLAPSSKSTSGGTAALGCLVKDYFPEPVTVSWNSGALTSGVHTFPAVLQSSGLYSLSSVVTVPSSSLGTQTYICNVNHKPSNTKVDKKVEPKSCDKTHTCPPCPAPEYIWGPSVFLFPPKPKDTLMISRTPEVTCVVVDVSDEDPEVKFNWYVDGVEVHNAKTKPREEQYNATYRVVSVLTVLHQDWLNGKEYKCKVSNKALPAPIEKTISKAKGQPREPQVCTLPPSRDELTKNQVSLWCLVKGFYPSDIAVEWESNGQPENNYKTTPPVLDSDGSFFLYSKLTVDKSRWQQGNVFSCSVMHEALHNHYTQKSLSLSP heavy 2: QDQLVQSGAEVKKPGASVKVSCKASGFNIKDTYIQWVRQAPGQGLEWMGRIDPLRKQTKYREKFEGRVTITADTSTNTAYMELSSLRSEDTAVYYCVRSGREFDYWGQGTLVTVSSASTKGPSVFPLAPSSKSTSGGTAALGCLVKDYFPEPVTVSWNSGALTSGVHTFPAVLQSSGLYSLSSVVTVPSSSLGTQTYICNVNHKPSNTKVDKKVEPKSCDKTHTCPPCPAPELLGGPSVFLFPPKPKDTLMISRTPEVTCVVVDVSHEDPEVKFNWYVDGVEVHNAKTKPREEQYNSTYRVVSVLTVLHQDWLNGKEYKCKVSNDALPMPIEETISKAKGQPREPQVYTLPPSRCELTKNQVSLSCAVKGFYPSDIAVEWESNGQPENNYKTTPPVLDSDGSFFLVSKLTVDKSRWQQGNVFSCSVMHEALHNHYTQKSLSLSP light: DIQMTQSPSSLSASVGDRVTITCRASQDIHKYIAWYQQKPGQAPRLLIQYTSTLQPGVPSRFSGSGSGTDYTFTISSLQPEDIATYYCLQYEQLRTFGGGTKVEIKRTVAAPSVFIFPPSDEQLKSGTASVVCLLNNFYPREAKVQWKVDNALQSGNSQESVTEQDSKDSTYSLSSTLTLSKADYEKHKVYACEVTHQGLSSPVTKSFNRGEC
